# Laboratory results published in patent US20150246959A1 (US Dept. of Health and Human Services, published 2015).
# B1: 6F9mC TCR (TCR)
# TCR alpha: QTVTQSQPEMSVQEAETVTLSCTYDTSESDYYLFWYKQPPSRQMILVIRQEAYKQQNATENRFSVNFQKAAKSFSLKISDSQLGDAAMYFCALRSSGTYKYIFGTGTRLKVLANIQNPEPAVYQLKDPRSQDSTLCLFTDFDSQINVPKTMESGTFITDKTVLDMKAMDSKSNGAIAWSNQTSFTCQDIFKETNATYPSSDVPCDATLTEKSFETDMNLNFQNLSVMGLRILLLKVAGFNLLMTLRLWSS
# TCR beta: GAGVSQSPSNKVTEKGKDVELRCDPISGHTALYWYRQSLGQGLEFLIYFQGNSAPDKSGLPSDRFSAERTGGSVSTLTIQRTQQEDSAVYLCASIRTGPFFSGNTIYFGEGSWLTVVEDLRNVTPPKVSLFEPSKAEIANKQKATLVCLARGFFPDHVELSWWVNGKEVHSGVSTDPQAYKESNYSYCLSSRLRVSATFWHNPRNHFRCQVQFHGLSEEDKWPEGSPKPVTQNISAEAWGRADCGITSASYHQGVLSATILYEILLGKATLYAVLVSGLVLMAMVKRKNS
# Experiments:
# Assay in all cases: cell-based or functional assay
# [1] = target: MAGE-B10: 250-260 peptide presented by HLA-DP*0401 on 293-CIITA cells (human, UniProt P20036 29-260)
# [2] = target: MAGE-B16: 252-262 peptide presented by HLA-DP*0401 on 293-CIITA cells (human, UniProt P20036 29-260)
# [3] = target: MAGE-A3: 248-258 peptide presented by HLA-DP*0401 on 293-CIITA cells (human, UniProt P20036 29-260)
# [4] = target: MAGE-A8: 251-261 peptide presented by HLA-DP*0401 on 293-CIITA cells (human, UniProt P20036 29-260)
# [5] = target: MAGE-A3: 246-258 peptide presented by HLA-DP*0401 on 293-CIITA cells (human, UniProt P20036 29-260)
# [6] = target: MAGE-A2/A12: 248-258 peptide presented by HLA-DP*0401 on 293-CIITA cells (human, UniProt P20036 29-260)
# [7] = target: MAGE-A6: 248-258 peptide presented by HLA-DP*0401 on 293-CIITA cells (human, UniProt P20036 29-260)
# [8] = target: MAGE-A3: 245-258 peptide presented by HLA-DP*0401 on 293-CIITA cells (human, UniProt P20036 29-260)
# [9] = target: MAGE-A3: 247-258 peptide presented by HLA-DP*0401 on 293-CIITA cells (human, UniProt P20036 29-260)
# [10] = target: MAGE-A3: 243-255 peptide presented by HLA-DP*0401 on 293-CIITA cells (human, UniProt P20036 29-260)
# [11] = target: MAGE-A3: 249-258 peptide presented by HLA-DP*0401 on 293-CIITA cells (human, UniProt P20036 29-260)
# [12] = target: MAGE-D2: 413-428 peptide presented by HLA-DP*0401 on 293-CIITA cells (human, UniProt P20036 29-260)
# [13] = target: Necdin: 237-247 peptide presented by HLA-DP*0401 on 293-CIITA cells (human, UniProt P20036 29-260)
# [14] = target: MAGE-A3: 243-256 peptide presented by HLA-DP*0401 on 293-CIITA cells (human, UniProt P20036 29-260)
# [15] = target: MAGE-L2: 582-597 peptide presented by HLA-DP*0401 on 293-CIITA cells (human, UniProt P20036 29-260)
# [16] = target: MAGE-A3: 243-258 peptide presented by HLA-DP*0401 on 293-CIITA cells (human, UniProt P20036 29-260)
# [17] = target: MAGE-A3: 243-253 peptide presented by HLA-DP*0401 on 293-CIITA cells (human, UniProt P20036 29-260)
# [18] = target: MAGE-G1: 220-235 peptide presented by HLA-DP*0401 on 293-CIITA cells (human, UniProt P20036 29-260)
# [19] = target: MAGE-A3: 243-254 peptide presented by HLA-DP*0401 on 293-CIITA cells (human, UniProt P20036 29-260)
# [20] = target: MAGE-C1: 113-123 peptide presented by HLA-DP*0401 on 293-CIITA cells (human, UniProt P20036 29-260)
# [21] = target: MAGE-B2: 250-260 peptide presented by HLA-DP*0401 on 293-CIITA cells (human, UniProt P20036 29-260)
# [22] = target: MAGE-A1/B4: 241-251 peptide presented by HLA-DP*0401 on 293-CIITA cells (human, UniProt P20036 29-260)
# [23] = target: MAGE-A4/A9: 249-259 peptide presented by HLA-DP*0401 on 293-CIITA cells (human, UniProt P20036 29-260)
# [24] = target: MAGE-D4: 300-315 peptide presented by HLA-DP*0401 on 293-CIITA cells (human, UniProt P20036 29-260)
binder,measurement,setting,value
B1,IFN-g (pg/ml); CD4+ T cells of PBMC-1; 293-CIITA pulsed with peptide,[1],18 pg/mL
same,IFN-g (pg/ml); CD4+ T cells of PBMC-2; 293-CIITA pulsed with peptide,[1],34 pg/mL
same,IFN-g (pg/ml); CD4+ T cells of PBMC-1; 293-CIITA pulsed with peptide,[2],27 pg/mL
same,IFN-g (pg/ml); CD4+ T cells of PBMC-2; 293-CIITA pulsed with peptide,[2],28 pg/mL
same,IFN-g (pg/ml); CD4+ T cells of PBMC-1; 293-CIITA pulsed with peptide,[3],9000 pg/mL
same,IFN-g (pg/ml); CD4+ T cells of PBMC-2; 293-CIITA pulsed with peptide,[3],8700 pg/mL
same,IFN-g (pg/ml); CD4+ T cells of PBMC-1; 293-CIITA pulsed with peptide,[4],58 pg/mL
same,IFN-g (pg/ml); CD4+ T cells of PBMC-2; 293-CIITA pulsed with peptide,[4],41 pg/mL
same,IFN-g (pg/ml); CD4+ T cells of PBMC-1; 293-CIITA pulsed with peptide,[5],12700 pg/mL
same,IFN-g (pg/ml); CD4+ T cells of PBMC-2; 293-CIITA pulsed with peptide,[5],16200 pg/mL
same,IFN-g (pg/ml); CD4+ T cells of PBMC-1; 293-CIITA pulsed with peptide,[6],66 pg/mL
same,IFN-g (pg/ml); CD4+ T cells of PBMC-2; 293-CIITA pulsed with peptide,[6],56 pg/mL
same,IFN-g (pg/ml); CD4+ T cells of PBMC-1; 293-CIITA pulsed with peptide,[7],11800 pg/mL
same,IFN-g (pg/ml); CD4+ T cells of PBMC-2; 293-CIITA pulsed with peptide,[7],8370 pg/mL
same,IFN-g (pg/ml); CD4+ T cells of PBMC-1; 293-CIITA pulsed with peptide,[8],15000 pg/mL
same,IFN-g (pg/ml); CD4+ T cells of PBMC-2; 293-CIITA pulsed with peptide,[8],17800 pg/mL
same,IFN-g (pg/ml); CD4+ T cells of PBMC-1; 293-CIITA pulsed with peptide,[9],10600 pg/mL
same,IFN-g (pg/ml); CD4+ T cells of PBMC-2; 293-CIITA pulsed with peptide,[9],13300 pg/mL
same,IFN-g (pg/ml); CD4+ T cells of PBMC-1; 293-CIITA pulsed with peptide,[10],137 pg/mL
same,IFN-g (pg/ml); CD4+ T cells of PBMC-2; 293-CIITA pulsed with peptide,[10],117 pg/mL
same,IFN-g (pg/ml); CD4+ T cells of PBMC-1; 293-CIITA pulsed with peptide,[11],1640 pg/mL
same,IFN-g (pg/ml); CD4+ T cells of PBMC-2; 293-CIITA pulsed with peptide,[11],2030 pg/mL
same,IFN-g (pg/ml); CD4+ T cells of PBMC-1; 293-CIITA pulsed with peptide,[12],43 pg/mL
same,IFN-g (pg/ml); CD4+ T cells of PBMC-2; 293-CIITA pulsed with peptide,[12],223 pg/mL
same,IFN-g (pg/ml); CD4+ T cells of PBMC-1; 293-CIITA pulsed with peptide,[13],22 pg/mL
same,IFN-g (pg/ml); CD4+ T cells of PBMC-2; 293-CIITA pulsed with peptide,[13],32 pg/mL
same,IFN-g (pg/ml); CD4+ T cells of PBMC-1; 293-CIITA pulsed with peptide,[14],1820 pg/mL
same,IFN-g (pg/ml); CD4+ T cells of PBMC-2; 293-CIITA pulsed with peptide,[14],2490 pg/mL
same,IFN-g (pg/ml); CD4+ T cells of PBMC-1; 293-CIITA pulsed with peptide,[15],56 pg/mL
same,IFN-g (pg/ml); CD4+ T cells of PBMC-2; 293-CIITA pulsed with peptide,[15],107 pg/mL
same,IFN-g (pg/ml); CD4+ T cells of PBMC-1; 293-CIITA pulsed with peptide,[16],15200 pg/mL
same,IFN-g (pg/ml); CD4+ T cells of PBMC-2; 293-CIITA pulsed with peptide,[16],17500 pg/mL
same,IFN-g (pg/ml); CD4+ T cells of PBMC-1; 293-CIITA pulsed with peptide,[17],40 pg/mL
same,IFN-g (pg/ml); CD4+ T cells of PBMC-2; 293-CIITA pulsed with peptide,[17],45 pg/mL
same,IFN-g (pg/ml); CD4+ T cells of PBMC-1; 293-CIITA pulsed with peptide,[18],29 pg/mL
same,IFN-g (pg/ml); CD4+ T cells of PBMC-2; 293-CIITA pulsed with peptide,[18],33 pg/mL
same,IFN-g (pg/ml); CD4+ T cells of PBMC-1; 293-CIITA pulsed with peptide,[19],0 pg/mL
same,IFN-g (pg/ml); CD4+ T cells of PBMC-2; 293-CIITA pulsed with peptide,[19],39 pg/mL
same,IFN-g (pg/ml); CD4+ T cells of PBMC-1; 293-CIITA pulsed with peptide,[20],0 pg/mL
same,IFN-g (pg/ml); CD4+ T cells of PBMC-2; 293-CIITA pulsed with peptide,[20],27 pg/mL
same,IFN-g (pg/ml); CD4+ T cells of PBMC-1; 293-CIITA pulsed with peptide,[21],0 pg/mL
same,IFN-g (pg/ml); CD4+ T cells of PBMC-2; 293-CIITA pulsed with peptide,[21],20 pg/mL
same,IFN-g (pg/ml); CD4+ T cells of PBMC-1; 293-CIITA pulsed with peptide,[22],126 pg/mL
same,IFN-g (pg/ml); CD4+ T cells of PBMC-2; 293-CIITA pulsed with peptide,[22],84 pg/mL
same,IFN-g (pg/ml); CD4+ T cells of PBMC-1; 293-CIITA pulsed with peptide,[23],23 pg/mL
same,IFN-g (pg/ml); CD4+ T cells of PBMC-2; 293-CIITA pulsed with peptide,[23],26 pg/mL
same,IFN-g (pg/ml); CD4+ T cells of PBMC-1; 293-CIITA pulsed with peptide,[24],234 pg/mL
same,IFN-g (pg/ml); CD4+ T cells of PBMC-2; 293-CIITA pulsed with peptide,[24],268 pg/mL
